According to the supplement of paper PMC11316812:
± gives the standard deviation of the averaged measurements.

What was measured:
MCF7 = experiment: percentage of EdU-negative (G0-arrested) nuclei per well, 72 h; higher = more G0 arrest; details: reference: sequence is the full UniProt precursor, the tested protein was the secreted form or ectodomain
hTERT-HMEC = experiment: as above; details: reference: sequence is the full UniProt precursor, the tested protein was the secreted form or ectodomain
[1] = protein concentration 0.00775 µM
[2] = protein concentration 0.0775 µM
[3] = protein concentration 0.0225 µM
[4] = protein concentration 0.00925 µM
[5] = protein concentration 0.0925 µM
[6] = protein concentration 0.01425 µM
[7] = protein concentration 0.1425 µM
[8] = protein concentration 0.03125 µM
[9] = protein concentration 0.3125 µM
[10] = protein concentration 0.0122857 µM
[11] = protein concentration 0.122857 µM
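Note: secreted proteins added to cultured cells, EdU pulse at the end, nuclei found by Hoechst imaging, EdU status from nuclear versus surrounding ring intensity ratio, PBS as neutral control.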

Row | Sequence | percentage of EdU-negative (MCF7; [3]) | percentage of EdU-negative (MCF7; protein concentration 0.225 µM) | percentage of EdU-negative (hTERT-HMEC; [3]) | percentage of EdU-negative (hTERT-HMEC; protein concentration 0.225 µM) | other results
1 | MPLRDETLREVWASDSGHEEESLSPEAPRRPKQRPAPAQRLRKKRTEAPESPCPTGSKPRKPGAGRTGRPREEPSPDPAQARAPQTVYARFLRDPEAKKRDPRETFLVARAPDAEDEEEEEEEDEEDEEEEAEEKKEKILLPPKKPLREKSSADLKERRAKAQGPRGDLGSPDPPPKPLRVRNKEAPAGEGTKMRKTKKKGSGEADKDPSGSPASARKSPAAMFLVGEGSPDKKALKKKGTPKGARKEEEEEEEAATVIKKSNQKGKAKGKGKKKAKEERAPSPPVEVDEPREFVLRPAPQGRTVRCRLTRDKKGMDRGMYPSYFLHLDTEKKVFLLAGRKRKRSKTANYLISIDPTNLSRGGENFIGKLRSNLLGNRFTVFDNGQNPQRGYSTNVASLRQELAAVIYETNVLGFRGPRRMTVIIPGMSAENERVPIRPRNASDGLLVRWQNKTLESLIELHNKPPVWNDDSGSYTLNFQGRVTQASVKNFQIVHADDPDYIVLQFGRVAEDAFTLDYRYPLCALQAFAIALSSFDGKLACE | – | – | – | – | percentage of EdU-negative (MCF7; [1]): 25.1 ± 0.28%; percentage of EdU-negative (MCF7; [2]): 25.5 ± 0.95%; percentage of EdU-negative (hTERT-HMEC; [1]): 5.21 ± 0.36%; percentage of EdU-negative (hTERT-HMEC; [2]): 6.67 ± 0.59%
2 | MPLSLGAEMWGPEAWLLLLLLLASFTGRCPAGELETSDVVTVVLGQDAKLPCFYRGDSGEQVGQVAWARVDAGEGAQELALLHSKYGLHVSPAYEGRVEQPPPPRNPLDGSVLLRNAVQADEGEYECRVSTFPAGSFQARLRLRVLVPPLPSLNPGPALEEGQGLTLAASCTAEGSPAPSVTWDTEVKGTTSSRSFKHSRSAAVTSEFHLVPSRSMNGQPLTCVVSHPGLLQDQRITHILHVSFLAEASVRGLEDQNLWHIGREGAMLKCLSEGQPPPSYNWTRLDGPLPSGVRVDGDTLGFPPLTTEHSGIYVCHVSNEFSSRDSQVTVDVLDPQEDSGKQVDLVSASVVVVGVIAALLFCLLVVVVVLMSRYHRRKAQQMTQKYEEELTLTRENSIRRLHSHHTDPRSQPEESVGLRAEGHPDSLKDNSSCSVMSEEPEGRSYSTLTTVREIETQTELLSPGSGRAEEEEDQDEGIKQAMNHFVQENGTLRAKPTGNGIYINGRGHLV [Q96NY8] | 27.6 ± 2% | 27.8 ± 0.29% | 4.77 ± 0.36% | 5.65 ± 0.22% | –
3 | MPMASPQTLVLYLLVLAVTEAWGQEAVIPGCHLHPFNVTVRSDRQGTCQGSHVAQACVGHCESSAFPSRYSVLVASGYRHNITSVSQCCTISGLKKVKVQLQCVGSRREELEIFTARACQCDMCRLSRY [Q96T91] | 24.4 ± 0.81% | 22 ± 2.1% | 6.3 ± 1.5% | 4.45 ± 1.1% | –
4 | MPMFIVNTNVPRASVPDGFLSELTQQLAQATGKPPQYIAVHVVPDQLMAFGGSSEPCALCSLHSIGKIGGAQNRSYSKLLCGLLAERLRISPDRVYINYYDMNAANVGWNNSTFA | 24.4 ± 1.2% | 26.3 ± 2% | 4.84 ± 1.4% | 6.38 ± 1.7% | –
5 | MPMGSLQPLATLYLLGMLVASCLGRLSWYDPDFQARLTRSNSKCQGQLEVYLKDGWHMVCSQSWGRSSKQWEDPSQASKVCQRLNCGVPLSLGPFLVTYTPQSSIICYGQLGSFSNCSHSRNDMCHSLGLTCLEPQKTTPPTTRPPPTTTPEPTAPPRLQLVAQSGGQHCAGVVEFYSGSLGGTISYEAQDKTQDLENFLCNNLQCGSFLKHLPETEAGRAQDPGEPREHQPLPIQWKIQNSSCTSLEHCFRKIKPQKSGRVLALLCSGFQPKVQSRLVGGSSICEGTVEVRQGAQWAALCDSSSARSSLRWEEVCREQQCGSVNSYRVLDAGDPTSRGLFCPHQKLSQCHELWERNSYCKKVFVTCQDPNPAGLAAGTVASIILALVLLVVLLVVCGPLAYKKLVKKFRQKKQRQWIGPTGMNQNMSFHRNHTATVRSHAENPTASHVDNEYSQPPRNSHLSAYPALEGALHRSSMQPDNSSDSDYDLHGAQRL | 24.9 ± 1.4% | 26 ± 3.2% | 5.29 ± 0.99% | 5.13 ± 0.33% | –
6 | MPPFLLLTCLFITGTSVSPVALDPCSAYISLNEPWRNTDHQLDESQGPPLCDNHVNGEWYHFTGMAGDAMPTFCIPENHCGTHAPVWLNGSHPLEGDGIVQRQACASFNGNCCLWNTTVEVKACPGGYYVYRLTKPSVCFHVYCGHFYDICDEDCHGSCSDTSECTCAPGTVLGPDRQTCFDENECEQNNGGCSEICVNLKNSYRCECGVGRVLRSDGKTCEDVEGCHNNNGGCSHSCLGSEKGYQCECPRGLVLSEDNHTCQVPVLCKSNAIEVNIPRELVGGLELFLTNTSCRGVSNGTHVNILFSLKTCGTVVDVVNDKIVASNLVTGLPKQTPGSSGDFIIRTSKLLIPVTCEFPRLYTISEGYVPNLRNSPLEIMSRNHGIFPFTLEIFKDNEFEEPYREALPTLKLRDSLYFGIEPVVHVSGLESLVESCFATPTSKIDEVLKYYLIRDGCVSDDSVKQYTSRDHLAKHFQVPVFKFVGKDHKEVFLHCRVLVCGVLDERSRCAQGCHRRMRRGAGGEDSAGLQGQTLTGGPIRIDWED [Q8WWZ8] | – | – | – | – | percentage of EdU-negative (MCF7; protein concentration 0.007 µM): 25.2 ± 1.8%; percentage of EdU-negative (MCF7; protein concentration 0.07 µM): 27.3 ± 1.3%; percentage of EdU-negative (hTERT-HMEC; protein concentration 0.007 µM): 5.2 ± 0.59%; percentage of EdU-negative (hTERT-HMEC; protein concentration 0.07 µM): 5.67 ± 1.7%
7 | MPPGPWESCFWVGGLILWLSVGSSGDAPPTPQPKCADFQSANLFEGTDLKVQFLLFVPSNPSCGQLVEGSSDLQNSGFNATLGTKLIIHGFRVLGTKPSWIDTFIRTLLRATNANVIAVDWIYGSTGVYFSAVKNVIKLSLEISLFLNKLLVLGVSESSIHIIGVSLGAHVGGMVGQLFGGQLGQITGLDPAGPEYTRASVEERLDAGDALFVEAIHTDTDNLGIRIPVGHVDYFVNGGQDQPGCPTFFYAGYSYLICDHMRAVHLYISALENSCPLMAFPCASYKAFLAGRCLDCFNPFLLSCPRIGLVEQGGVKIEPLPKEVKVYLLTTSSAPYCMHHSLVEFHLKELRNKDTNIEVTFLSSNITSSSKITIPKQQRYGKGIIAHATPQCQINQVKFKFQSSNRVWKKDRTTIIGKFCTALLPVNDREKMVCLPEPVNLQASVTVSCDLKIACV [Q53H76] | – | – | – | – | percentage of EdU-negative (MCF7; [4]): 24.3 ± 1.9%; percentage of EdU-negative (MCF7; [5]): 28.4 ± 1.4%; percentage of EdU-negative (hTERT-HMEC; [4]): 4.11 ± 0.46%; percentage of EdU-negative (hTERT-HMEC; [5]): 6.06 ± 0.41%
8 | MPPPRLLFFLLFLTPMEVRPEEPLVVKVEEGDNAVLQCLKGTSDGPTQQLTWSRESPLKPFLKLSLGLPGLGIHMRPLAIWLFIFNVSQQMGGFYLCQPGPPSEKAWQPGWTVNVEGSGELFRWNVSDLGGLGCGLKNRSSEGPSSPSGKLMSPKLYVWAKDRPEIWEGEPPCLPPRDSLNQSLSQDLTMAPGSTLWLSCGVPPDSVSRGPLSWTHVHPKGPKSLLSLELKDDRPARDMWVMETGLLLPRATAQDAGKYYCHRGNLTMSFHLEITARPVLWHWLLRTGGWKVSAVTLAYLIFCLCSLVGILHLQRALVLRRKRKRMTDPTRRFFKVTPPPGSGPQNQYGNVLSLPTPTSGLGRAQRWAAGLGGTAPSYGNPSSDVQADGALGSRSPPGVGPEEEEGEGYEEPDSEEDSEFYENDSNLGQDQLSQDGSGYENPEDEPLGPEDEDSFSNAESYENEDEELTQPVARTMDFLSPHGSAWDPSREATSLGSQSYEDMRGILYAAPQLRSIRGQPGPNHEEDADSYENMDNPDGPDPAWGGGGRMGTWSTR | – | – | – | – | percentage of EdU-negative (MCF7; [6]): 25.2 ± 1.1%; percentage of EdU-negative (MCF7; [7]): 26.2 ± 0.68%; percentage of EdU-negative (hTERT-HMEC; [6]): 5.66 ± 0.95%; percentage of EdU-negative (hTERT-HMEC; [7]): 8.73 ± 0.49%
9 | MPPRGPASELLLLRLLLLGAATAAPLAPRPSKEELTRCLAEVVTEVLTVGQVQRGPCTALLHKELCGTEPHGCASTEEKGLLLGDFKKQEAGKMRSSQEVRDEEEEEVAERTHKSEVQEQAIRMQGHRQLHQEEDEEEEKEERKRGPMETFEDLWQRHLENGGDLQKRVAEKASDKETAQFQAEEKGVRVLGGDRSLWQGAERGGGERREDLPHHHHHHHQPEAEPRQEKEEASEREEKEVEQLEHLRDELKKVTETLGEQLRREG [I3L3R5] | 26.1 ± 0.53% | 26.5 ± 0.58% | 5.07 ± 1.4% | 7.54 ± 0.57% | –
10 | MPPSGPRGTLLLLPLLLLLLLRAVLAVPLERGAPNKEETPATESPDTGLYYHRYLQEVIDVLETDGHFREKLQAANAEDIKSGKLSRELDFVSHHVRTKLDELKRQEVSRLRMLLKAKMDAEQDPNVQVDHLNLLKQFEHLDPQNQHTFEARDLELLIQTATRDLAQYDAAHHEEFKRYEMLKEHERRRYLESLGEEQRKEAERKLEEQQRRHREHPKVNVPGSQAQLKEVWEELDGLDPNRFNPKTFFILHDINSDGVLDEQELEALFTKELEKVYDPKNEEDDMREMEEERLRMREHVMKNVDTNQDRLVTLEEFLASTQRKEFGDTGEGWETVEMHPAYTEEELRRFEEELAAREAELNAKAQRLSQETEALGRSQGRLEAQKRELQQAVLHMEQRKQQQQQQQGHKAPAAHPEGQLKFHPDTDDVPVPAPAGDQKEVDTSEKKLLERLPEVEVPQHL | – | – | – | – | percentage of EdU-negative (MCF7; [8]): 24.1 ± 0.73%; percentage of EdU-negative (MCF7; [9]): 26.9 ± 1.6%; percentage of EdU-negative (hTERT-HMEC; [8]): 4.94 ± 0.37%; percentage of EdU-negative (hTERT-HMEC; [9]): 7.16 ± 0.53%
11 | MPRAPAPLYACLLGLCALLPRLAGLNICTSGSATSCEECLLIHPKCAWCSKEDFGSPRSITSRCDLRANLVKNGCGGEIESPASSFHVLRSLPLSSKGSGSAGWDVIQMTPQEIAVNLRPGDKTTFQLQVRQVEDYPVDLYYLMDLSLSMKDDLDNIRSLGTKLAEEMRKLTSNFRLGFGSFVDKDISPFSYTAPRYQTNPCIGYKLFPNCVPSFGFRHLLPLTDRVDSFNEEVRKQRVSRNRDAPEGGFDAVLQAAVCKEKIGWRKDALHLLVFTTDDVPHIALDGKLGGLVQPHDGQCHLNEANEYTASNQMDYPSLALLGEKLAENNINLIFAVTKNHYMLYKNFTALIPGTTVEILDGDSKNIIQLIINAYNSIRSKVELSVWDQPEDLNLFFTATCQDGVSYPGQRKCEGLKIGDTASFEVSLEARSCPSRHTEHVFALRPVGFRDSLEVGVTYNCTCGCSVGLEPNSARCNGSGTYVCGLCECSPGYLGTRCECQDGENQSVYQNLCREAEGKPLCSGRGDCSCNQCSCFESEFGKIYGPFCECDNFSCARNKGVLCSGHGECHCGECKCHAGYIGDNCNCSTDISTCRGRDGQICSERGHCLCGQCQCTEPGAFGEMCEKCPTCPDACSTKRDCVECLLLHSGKPDNQTCHSLCRDEVITWVDTIVKDDQEAVLCFYKTAKDCVMMFTYVELPSGKSNLTVLREPECGNTPNAMTILLAVVGSILLVGLALLAIWKLLVTIHDRREFAKFQSERSRARYEMASNPLYRKPISTHTVDFTFNKFNKSYNGTVD | 25.2 ± 1.3% | 26 ± 1.5% | 5.13 ± 0.59% | 7.6 ± 1.1% | –
12 | MPRCRWLSLILLTIPLALVARKDPKKNETGVLRKLKPVNASNANVKQCLWFAMQEYNKESEDKYVFLVVKTLQAQLQVTNLLEYLIDVEIARSDCRKPLSTNEICAIQENSKLKRKLSCSFLVGALPWNGEFTVMEKKCEDA | 27.2 ± 1.2% | 25.6 ± 1.6% | 5.21 ± 1.2% | 4.56 ± 0.34% | –
13 | MPRGFTWLRYLGIFLGVALGNEPLEMWPLTQNEECTVTGFLRDKLQYRSRLQYMKHYFPINYKISVPYEGVFRIANVTRLQRAQVSERELRYLWVLVSLSATESVQDVLLEGHPSWKYLQEVETLLLNVQQGLTDVEVSPKVESVLSLLNAPGPNLKLVRPKALLDNCFRVMELLYCSCCKQSSVLNWQDCEVPSPQSCSPEPSLQYAATQLYPPPPWSPSSPPHSTGSVRPVRAQGEGLLP [Q6ZMJ4] | – | – | – | – | percentage of EdU-negative (MCF7; [10]): 25.6 ± 1.6%; percentage of EdU-negative (MCF7; [11]): 27.7 ± 1.3%; percentage of EdU-negative (hTERT-HMEC; [10]): 4.75 ± 0.29%; percentage of EdU-negative (hTERT-HMEC; [11]): 18.4 ± 1.3%
